The record followed here is patent publication US20020147326A1 (GlaxoSmithKline, published 2002).

Test [1] deals with T1, human CD28 expressed on the cell surface (human, UniProt P10747 19-220).
T1 construct: whole, on cells; also called CD28 positive cells; PCD28.1.s2.1 cells
The test can be described thus: flow cytometry on PCD28.1.s2.1 cells expressing human CD28.
Protocol: Non-adherent CD28 expressing cells (PCD28.1.s2.1) were used for this assay format. […] All incubations were carried out on ice. […] After washing twice in binding buffer, bound fusion proteins were detected with a 1:2000 dilution of a goat anti-human polyclonal antibody labeled with FITC (Flourescein isothiocyanate, Southern Biotech).

Test [2] has as its target T2, CTLA4-Ig (human, UniProt P16410 36-161).
T2 construct: also called CTLA4-Fc; not shown: human IgG1 heavy chain Fc region (hinge, CH2, CH3) of vector COSFcLink
The test can be described thus: isothermal titration calorimetry, Kd at 37° C., measured at 37° C.

The target in test [3] is T2, CTLA4-Ig. Nature of the test: isothermal titration calorimetry, in solution, 44° C.
The target in test [4] is T2, CTLA4-Ig. Nature of the test: isothermal titration calorimetry at 44° C., Kd corrected to 37° C. by the van't Hoff equation.
For test [5], the target named is T2, CTLA4-Ig. Nature of the test: isothermal titration calorimetry, in solution, 37° C.

T2 sequence (P16410 other isoform, or with tags, fused parts or gaps): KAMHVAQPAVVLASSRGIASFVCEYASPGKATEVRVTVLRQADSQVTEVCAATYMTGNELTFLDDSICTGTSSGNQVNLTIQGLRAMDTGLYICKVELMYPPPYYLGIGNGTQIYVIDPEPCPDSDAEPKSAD

B1: CD86-Ig (Fc fusion)
chain: APLKIQAYFNETADLPCQFANSQNQSLSELVVFWQDQENLVLNEVYLGKEKFDSVHSKYMGRTSFDSDSWTLRLHNLQIKDKGLYQCIIHHKKPTGMIRIHQMNSELSVLANFSQPEIVPISNITENVYINLTCSSIHGYPEPKKMSVLLRTKNSTIEYDGIMQKSQDNVTELYDVSISLSVSFPDVTSNMTIFCILETDKTRLLSSPFSIELEDPQPPPDHEPKSADKTHTCPPCP
notes: Mature N-terminus LKIQ-, junction PPPDHepksa; also called B7.2-Ig; monomeric CD86-Ig; not shown: human IgG1 heavy chain Fc region (hinge, CH2, CH3) of vector COSFcLink
Take B1: the binding result in test [1] is “no binding”. Besides, the Kd stood at 40 nM in test [2], 71 nM in test [3], 22 nM in test [4] and 38 nM in test [5]. The “Molar Ratio (CTLA4-Ig per construct)” value is 0.79 in test [3] and 0.8 in test [5]. In addition, the figures for the ΔH in test [3] and in test [5] were -34 kcal/mol and -33 kcal/mol, respectively.
